Source: EP2336190A2 (Genentech, Inc., dated 2011)

Biological target: T1, VEGF (human, UniProt P15692-4 27-191, limits assumed)
T1 construct: also called human VEGF; vascular endothelial growth factor
Experiment: competitive phage-ELISA, wt = pY0192

T1 sequence (P15692 other isoform, or with tags, fused parts or gaps limits assumed): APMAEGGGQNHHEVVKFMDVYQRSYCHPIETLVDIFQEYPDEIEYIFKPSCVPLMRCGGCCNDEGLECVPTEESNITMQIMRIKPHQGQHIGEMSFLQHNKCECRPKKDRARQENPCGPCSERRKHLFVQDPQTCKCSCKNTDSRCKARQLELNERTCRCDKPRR

Row | Binder | IC50 (mut) / IC50 (wt)
1 | pY0192 VH Y27A (Fab, V domains shown) VH: EVQLVESGGGLVQPGGSLRLSCAASGATFTNYGINWVRQAPGKGLEWVGWINTYTGEPTYAADFKRRFTFSLDTSKSTAYLQMNSLRAEDTAVYYCAKYPHYYGSSHWYFDVWGQGTL VL: DIQLTQSPSSLSASVGDRVTITCRANEQLSNYLNWYQQKPGKAPKVLIYFTSSLHSGVPSRFSGSGSGTDFTLTISSLQPEDFATYYCQQYSTVPWTFGQGTKVEIKR | 34
2 | pY0192 VH F29A (Fab, V domains shown) VH: EVQLVESGGGLVQPGGSLRLSCAASGYTATNYGINWVRQAPGKGLEWVGWINTYTGEPTYAADFKRRFTFSLDTSKSTAYLQMNSLRAEDTAVYYCAKYPHYYGSSHWYFDVWGQGTL VL: DIQLTQSPSSLSASVGDRVTITCRANEQLSNYLNWYQQKPGKAPKVLIYFTSSLHSGVPSRFSGSGSGTDFTLTISSLQPEDFATYYCQQYSTVPWTFGQGTKVEIKR | 16
3 | pY0192 VH T59A (Fab, V domains shown) VH: EVQLVESGGGLVQPGGSLRLSCAASGYTFTNYGINWVRQAPGKGLEWVGWINTYTGEPAYAADFKRRFTFSLDTSKSTAYLQMNSLRAEDTAVYYCAKYPHYYGSSHWYFDVWGQGTL VL: DIQLTQSPSSLSASVGDRVTITCRANEQLSNYLNWYQQKPGKAPKVLIYFTSSLHSGVPSRFSGSGSGTDFTLTISSLQPEDFATYYCQQYSTVPWTFGQGTKVEIKR | 3
4 | pY0192 VH Y109A (Fab, V domains shown) VH: EVQLVESGGGLVQPGGSLRLSCAASGYTFTNYGINWVRQAPGKGLEWVGWINTYTGEPTYAADFKRRFTFSLDTSKSTAYLQMNSLRAEDTAVYYCAKYPHYYGSSHWAFDVWGQGTL VL: DIQLTQSPSSLSASVGDRVTITCRANEQLSNYLNWYQQKPGKAPKVLIYFTSSLHSGVPSRFSGSGSGTDFTLTISSLQPEDFATYYCQQYSTVPWTFGQGTKVEIKR | 19
5 | pY0192 VH T55A (Fab, V domains shown) VH: EVQLVESGGGLVQPGGSLRLSCAASGYTFTNYGINWVRQAPGKGLEWVGWINTYAGEPTYAADFKRRFTFSLDTSKSTAYLQMNSLRAEDTAVYYCAKYPHYYGSSHWYFDVWGQGTL VL: DIQLTQSPSSLSASVGDRVTITCRANEQLSNYLNWYQQKPGKAPKVLIYFTSSLHSGVPSRFSGSGSGTDFTLTISSLQPEDFATYYCQQYSTVPWTFGQGTKVEIKR | 4
6 | pY0192 VH Y32A (Fab, V domains shown) VH: EVQLVESGGGLVQPGGSLRLSCAASGYTFTNAGINWVRQAPGKGLEWVGWINTYTGEPTYAADFKRRFTFSLDTSKSTAYLQMNSLRAEDTAVYYCAKYPHYYGSSHWYFDVWGQGTL VL: DIQLTQSPSSLSASVGDRVTITCRANEQLSNYLNWYQQKPGKAPKVLIYFTSSLHSGVPSRFSGSGSGTDFTLTISSLQPEDFATYYCQQYSTVPWTFGQGTKVEIKR | > 150
7 | pY0192 VH N35A (Fab, V domains shown) VH: EVQLVESGGGLVQPGGSLRLSCAASGYTFTNYGIAWVRQAPGKGLEWVGWINTYTGEPTYAADFKRRFTFSLDTSKSTAYLQMNSLRAEDTAVYYCAKYPHYYGSSHWYFDVWGQGTL VL: DIQLTQSPSSLSASVGDRVTITCRANEQLSNYLNWYQQKPGKAPKVLIYFTSSLHSGVPSRFSGSGSGTDFTLTISSLQPEDFATYYCQQYSTVPWTFGQGTKVEIKR | 66
8 | pY0192 VH P100A (Fab, V domains shown) VH: EVQLVESGGGLVQPGGSLRLSCAASGYTFTNYGINWVRQAPGKGLEWVGWINTYTGEPTYAADFKRRFTFSLDTSKSTAYLQMNSLRAEDTAVYYCAKYAHYYGSSHWYFDVWGQGTL VL: DIQLTQSPSSLSASVGDRVTITCRANEQLSNYLNWYQQKPGKAPKVLIYFTSSLHSGVPSRFSGSGSGTDFTLTISSLQPEDFATYYCQQYSTVPWTFGQGTKVEIKR | 38
9 | pY0192 VH I51A (Fab, V domains shown) VH: EVQLVESGGGLVQPGGSLRLSCAASGYTFTNYGINWVRQAPGKGLEWVGWANTYTGEPTYAADFKRRFTFSLDTSKSTAYLQMNSLRAEDTAVYYCAKYPHYYGSSHWYFDVWGQGTL VL: DIQLTQSPSSLSASVGDRVTITCRANEQLSNYLNWYQQKPGKAPKVLIYFTSSLHSGVPSRFSGSGSGTDFTLTISSLQPEDFATYYCQQYSTVPWTFGQGTKVEIKR | 4
10 | pY0192 VH G33A (Fab, V domains shown) VH: EVQLVESGGGLVQPGGSLRLSCAASGYTFTNYAINWVRQAPGKGLEWVGWINTYTGEPTYAADFKRRFTFSLDTSKSTAYLQMNSLRAEDTAVYYCAKYPHYYGSSHWYFDVWGQGTL VL: DIQLTQSPSSLSASVGDRVTITCRANEQLSNYLNWYQQKPGKAPKVLIYFTSSLHSGVPSRFSGSGSGTDFTLTISSLQPEDFATYYCQQYSTVPWTFGQGTKVEIKR | 6
11 | pY0192 VH Y103A (Fab, V domains shown) VH: EVQLVESGGGLVQPGGSLRLSCAASGYTFTNYGINWVRQAPGKGLEWVGWINTYTGEPTYAADFKRRFTFSLDTSKSTAYLQMNSLRAEDTAVYYCAKYPHYAGSSHWYFDVWGQGTL VL: DIQLTQSPSSLSASVGDRVTITCRANEQLSNYLNWYQQKPGKAPKVLIYFTSSLHSGVPSRFSGSGSGTDFTLTISSLQPEDFATYYCQQYSTVPWTFGQGTKVEIKR | 5
12 | pY0192 VH N31A (Fab, V domains shown) VH: EVQLVESGGGLVQPGGSLRLSCAASGYTFTAYGINWVRQAPGKGLEWVGWINTYTGEPTYAADFKRRFTFSLDTSKSTAYLQMNSLRAEDTAVYYCAKYPHYYGSSHWYFDVWGQGTL VL: DIQLTQSPSSLSASVGDRVTITCRANEQLSNYLNWYQQKPGKAPKVLIYFTSSLHSGVPSRFSGSGSGTDFTLTISSLQPEDFATYYCQQYSTVPWTFGQGTKVEIKR | > 150
13 | pY0192 VH Y102A (Fab, V domains shown) VH: EVQLVESGGGLVQPGGSLRLSCAASGYTFTNYGINWVRQAPGKGLEWVGWINTYTGEPTYAADFKRRFTFSLDTSKSTAYLQMNSLRAEDTAVYYCAKYPHAYGSSHWYFDVWGQGTL VL: DIQLTQSPSSLSASVGDRVTITCRANEQLSNYLNWYQQKPGKAPKVLIYFTSSLHSGVPSRFSGSGSGTDFTLTISSLQPEDFATYYCQQYSTVPWTFGQGTKVEIKR | 4
14 | pY0192 VH Y54A (Fab, V domains shown) VH: EVQLVESGGGLVQPGGSLRLSCAASGYTFTNYGINWVRQAPGKGLEWVGWINTATGEPTYAADFKRRFTFSLDTSKSTAYLQMNSLRAEDTAVYYCAKYPHYYGSSHWYFDVWGQGTL VL: DIQLTQSPSSLSASVGDRVTITCRANEQLSNYLNWYQQKPGKAPKVLIYFTSSLHSGVPSRFSGSGSGTDFTLTISSLQPEDFATYYCQQYSTVPWTFGQGTKVEIKR | 9

Results, then the binder that gave them:

Row | IC50 (mut) / IC50 (wt) | Binder
15 | 4 | pY0192 VH H101A (Fab, V domains shown) VH: EVQLVESGGGLVQPGGSLRLSCAASGYTFTNYGINWVRQAPGKGLEWVGWINTYTGEPTYAADFKRRFTFSLDTSKSTAYLQMNSLRAEDTAVYYCAKYPAYYGSSHWYFDVWGQGTL VL: DIQLTQSPSSLSASVGDRVTITCRANEQLSNYLNWYQQKPGKAPKVLIYFTSSLHSGVPSRFSGSGSGTDFTLTISSLQPEDFATYYCQQYSTVPWTFGQGTKVEIKR
16 | 9 | pY0192 VH T53A (Fab, V domains shown) VH: EVQLVESGGGLVQPGGSLRLSCAASGYTFTNYGINWVRQAPGKGLEWVGWINAYTGEPTYAADFKRRFTFSLDTSKSTAYLQMNSLRAEDTAVYYCAKYPHYYGSSHWYFDVWGQGTL VL: DIQLTQSPSSLSASVGDRVTITCRANEQLSNYLNWYQQKPGKAPKVLIYFTSSLHSGVPSRFSGSGSGTDFTLTISSLQPEDFATYYCQQYSTVPWTFGQGTKVEIKR
17 | > 150 | pY0192 VH W108A (Fab, V domains shown) VH: EVQLVESGGGLVQPGGSLRLSCAASGYTFTNYGINWVRQAPGKGLEWVGWINTYTGEPTYAADFKRRFTFSLDTSKSTAYLQMNSLRAEDTAVYYCAKYPHYYGSSHAYFDVWGQGTL VL: DIQLTQSPSSLSASVGDRVTITCRANEQLSNYLNWYQQKPGKAPKVLIYFTSSLHSGVPSRFSGSGSGTDFTLTISSLQPEDFATYYCQQYSTVPWTFGQGTKVEIKR
18 | > 150 | pY0192 VH N52A (Fab, V domains shown) VH: EVQLVESGGGLVQPGGSLRLSCAASGYTFTNYGINWVRQAPGKGLEWVGWIATYTGEPTYAADFKRRFTFSLDTSKSTAYLQMNSLRAEDTAVYYCAKYPHYYGSSHWYFDVWGQGTL VL: DIQLTQSPSSLSASVGDRVTITCRANEQLSNYLNWYQQKPGKAPKVLIYFTSSLHSGVPSRFSGSGSGTDFTLTISSLQPEDFATYYCQQYSTVPWTFGQGTKVEIKR
19 | > 150 | pY0192 VH S106A (Fab, V domains shown) VH: EVQLVESGGGLVQPGGSLRLSCAASGYTFTNYGINWVRQAPGKGLEWVGWINTYTGEPTYAADFKRRFTFSLDTSKSTAYLQMNSLRAEDTAVYYCAKYPHYYGSAHWYFDVWGQGTL VL: DIQLTQSPSSLSASVGDRVTITCRANEQLSNYLNWYQQKPGKAPKVLIYFTSSLHSGVPSRFSGSGSGTDFTLTISSLQPEDFATYYCQQYSTVPWTFGQGTKVEIKR
20 | > 150 | pY0192 VH Y99A (Fab, V domains shown) VH: EVQLVESGGGLVQPGGSLRLSCAASGYTFTNYGINWVRQAPGKGLEWVGWINTYTGEPTYAADFKRRFTFSLDTSKSTAYLQMNSLRAEDTAVYYCAKAPHYYGSSHWYFDVWGQGTL VL: DIQLTQSPSSLSASVGDRVTITCRANEQLSNYLNWYQQKPGKAPKVLIYFTSSLHSGVPSRFSGSGSGTDFTLTISSLQPEDFATYYCQQYSTVPWTFGQGTKVEIKR
21 | 6 | pY0192 VH I34A (Fab, V domains shown) VH: EVQLVESGGGLVQPGGSLRLSCAASGYTFTNYGANWVRQAPGKGLEWVGWINTYTGEPTYAADFKRRFTFSLDTSKSTAYLQMNSLRAEDTAVYYCAKYPHYYGSSHWYFDVWGQGTL VL: DIQLTQSPSSLSASVGDRVTITCRANEQLSNYLNWYQQKPGKAPKVLIYFTSSLHSGVPSRFSGSGSGTDFTLTISSLQPEDFATYYCQQYSTVPWTFGQGTKVEIKR
22 | > 150 | pY0192 VH W50A (Fab, V domains shown) VH: EVQLVESGGGLVQPGGSLRLSCAASGYTFTNYGINWVRQAPGKGLEWVGAINTYTGEPTYAADFKRRFTFSLDTSKSTAYLQMNSLRAEDTAVYYCAKYPHYYGSSHWYFDVWGQGTL VL: DIQLTQSPSSLSASVGDRVTITCRANEQLSNYLNWYQQKPGKAPKVLIYFTSSLHSGVPSRFSGSGSGTDFTLTISSLQPEDFATYYCQQYSTVPWTFGQGTKVEIKR
